Source: article PMC4991794

These sequences were tested against T1, SenRc (His-tagged response regulator) (Streptomyces coelicolor A3(2)) (UniProt Q9KXW5) (assay: EMSA). Settings: 10 mM Tris-HCl pH 7.5, 5% glycerol, 40 mM KCl, 1 mM MgCl2, 2 mM DTT, 10 ug/ml BSA; 30 C, 15 min; 30 ul with 20 ng or 25 ng (Methods) DNA; 7% ….
T1 sequence: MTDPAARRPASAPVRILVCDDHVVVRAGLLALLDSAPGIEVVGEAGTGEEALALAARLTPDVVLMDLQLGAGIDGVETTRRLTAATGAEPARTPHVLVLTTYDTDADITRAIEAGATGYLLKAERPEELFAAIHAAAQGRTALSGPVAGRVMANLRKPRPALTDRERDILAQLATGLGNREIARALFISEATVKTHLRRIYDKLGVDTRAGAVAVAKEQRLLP
For “CACCGGATACCTGTTGAAGGCCGAACGCCCCGAGGAGCTGTTCGCGGCCATCCACGCCGCCGCCCAGGGCCGTACGGCACTGTCCGGGCCGGTCGCCGGCCGGGTCATGGCCAACCTGCGCAAGCCGCGCCCCGCCCTCACCGACCGCGAGCGCGACATCCTGGCCCAGCTCGCCACCGGGCTCGGCAACCGGGAGATCGCCCGCGCCCTGTTCATCAG (double strand) [in-senRc]”, the binding was “no binding”.
In the case of “CACGTCGACCTCGGCCGCATGTCCAGCGCCATCTGTCCGGGCCGCTGAGAGCACTCTCCAGCACCTCCGGATTCCCCGCATTCACCTCGCTCCCGCGCAATGACGCGCACGCGTGTCTCACGTATGCCCACGTAGTGCCATGCGCCATGCGCGCAGGTCAGAGCCGTTTCCACCTGTCTCCAAAGGACGTGTCACACCATGGCCGCCACTC (double strand) [up-SCO6102]”, the binding is reported as “binds”.
In the case of “CTCGTACGTCCGTTTCGGGGGCTCGAAGACGGCTTCGCGCCCCCCGCCGTGCCCCCACGCTTACACGTTCCGGCCTGTACGCGTCCGTTTCCGGCACCCCAAATGAACCGTCCCTGGCTCCAAGGTGAACTCTGGGCGACGAGTGTTCGAGGTCGCACCCGGATGGCTGGGGCCGGACGGTTCGCCGTGCCTAACCTGGAGACATGGACGTGAAC (double strand) [up-SCO4229]”, the binding is reported as “binds”.
For “GAAAGCATGGGTGTTAAAGTCGTGTGCATGAAGCAAGCAGCCGCGCCCACCACACCACAGCGCCTCGCGCTCGTGGCGCGCCTGCACGTGGACCTCTGCCGGTGCGCGTCCGCGAACTGTCGCCCCTGACGTTCCCCCCTCACCAGTCGTCCCCACGTCAGCTCAGCGCGTCCCATCCCGCGTCCCGTCCCCCTACGGAGCATGTCCGTGTG (double strand) [up-SCO4498]”, the binding was “binds”.
With “GAGGAAGCCCGGTGCGAATCCGGCGCGGTCCCGCCACTGTGACCGGGGACAGGATCCCCGGGAGCCAGGAACTCTCGCCGCCGTGCTCTTCGAACCAGGGCGCGGACACCCTGAGTGAGGACCTATCGCCATGCGCGGCTGCCGTTCCGGGCTCACCAGCGACACGCTTCGACTTCCCCTTCCCACGGCCGGTTGAGCCGTGCGTGCC (double strand) [up-SCO1847]” the binding was “binds”.
For “GAGTGGCGGCCATGGTGTGACACGTCCTTTGGAGACAGGTGGAAACGGCTCTGACCTGCGCGCATGGCGCATGGCACTACGTGGGCATACGTGAGACACGCGTGCGCGTCATTGCGCGGGAGCGAGGTGAATGCGGGGAATCCGGAGGTGCTGGAGAGTGCTCTCTTCAAGCTTGACAGATGGCGCTGGACATGCGGCCGAGGTCGACGTG (double strand) [up-SCO6102*]”, the binding was “no binding”.
For “GGCACGTGCGCGCACGCCTGTCCAGTCCGAGGACCTGCCGACAGTGCGCCCGGCCGCCCTGGCCCGGGTGCCATGACGTCCGGGCCTCGCGGAGTGGGCCGGTGGACGCGACGCCGCGTGCGCTCGTGAGCTGCCCCCTGCCCTCCCTCCGCCGGGCCCCGTGCCGAGCGAGGGAGTGCTCCACGTGACCATCGCGCCAG (double strand) [up-SCO5226]”, the binding was “binds”.
“GTTCACGTCCATGTCTCCAGGTTAGGCTCGTCGAAGATCAAGCTTGAGCCATCCGGGTGGGACCTCGAACACTCGTCGCCCAGAGTTCACCTTGGAGCCAGGGACGGTTCATTTGGGGTGCCGGAAACGGACGCGTACAGGCCGGAACGTGTAAGCGTGGGGGCACGGCGGGGGGCGCGAAGCCGTCTTCGAGCCCCCGAAACGGACGTACGAG (double strand) [up-SCO4229*]” was tested, and the binding was “no binding”.
